# In paper doi:10.1101/2025.07.27.667015v3 (biorxiv, 2025):
# Legend:
# CSCC[C@H](N)C(=O)O = assay: purified protein; conditions: saturating PLP (5 μM), 50 mM Tris-HCl pH 8.0, 20 °C
# yMGL [1] = target: yMGL (Yarrowia lipolytica, UniProt Q6CB42, S333A); assay: OpenSPR, protein immobilised on NTA chip; assay type: binding
# yMGL [2] = target: yMGL (Yarrowia lipolytica, UniProt Q6CB42); assay: OpenSPR, protein immobilised on NTA chip; assay type: binding
Compound,Km (CSCC[C@H](N)C(=O)O) [µM],kcat (CSCC[C@H](N)C(=O)O) [s⁻¹],Kd (yMGL [1]) [µM],Kd (yMGL [2]) [µM]
yMGL (Yarrowia lipolytica CLIB122),1500 ± 10,0.06 ± 0.00,–,–
yMGL-ΔCTD (Yarrowia lipolytica CLIB122; DEL253-380),750 ± 10,0.04 ± 0.00,–,–
Cc1ncc(COP(=O)(O)O)c(C=O)c1O [PLP],–,–,942,33.1
